B1: murine ID9 anti-RAGE monoclonal antibody (antibody, part only; not given: Light chain variable region, V domains shown, part only)
VH: QVTLKESGPGILKPSQTLSLTCSFSGFSLSTSGMGVGWIRQPSGKGLEWLAHIWWDDDKYYKPSLKSQVTISKDTSRNQVFLKITSVDTADTATYYCARSRYYGSSGMDYWGQGTSVTVSS
B2: mHA9: murine version of anti-RAGE antibody clone HA9 (antibody, V domains shown)
VH: EVKLVETGGGLVQPGRPMKLSCVASGFTLSDHWMNWVRQSPEKGLEWVAQIRNRPYKFEKYYSDSVKGRFTISRDDSKNSVYLQMNNLRAEDMGIYYCSSYRYGLAYWGQGTLVTVST
VL: DNLLTQSPAILSVSPGERVSFSCRASQTIDTRIHWYQQRKNGSPRLLIRYISESLSGIPSRFSGSGSGTEFTLTINSVESEDIADYYCQQTESWPITFGSGTKLEIK
B3: HA9: anti-RAGE monoclonal antibody clone, VH SEQ ID NO: 7, VL SEQ ID NO: 8, raised against RAGE aa 39-65 (antibody, V domains shown)
RAGE, sequence (Q15109 23-317 limits assumed): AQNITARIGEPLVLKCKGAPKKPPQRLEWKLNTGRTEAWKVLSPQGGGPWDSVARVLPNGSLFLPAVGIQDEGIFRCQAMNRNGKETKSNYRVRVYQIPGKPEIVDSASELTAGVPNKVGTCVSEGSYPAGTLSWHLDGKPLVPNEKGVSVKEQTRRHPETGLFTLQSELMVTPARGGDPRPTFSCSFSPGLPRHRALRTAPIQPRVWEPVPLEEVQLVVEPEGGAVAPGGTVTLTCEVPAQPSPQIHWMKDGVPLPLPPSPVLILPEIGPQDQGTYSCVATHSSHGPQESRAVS
VH: B2 VH
VL: B2 VL

Key:
[1] = target: synthetic peptide S155 of the RAGE V-domain (amino acids 39-65) (human); experiment: SPR (Biacore T200), antibody amine-coupled to a CM5 chip as ligand, RAGE peptide S155 (BioRad) as analyte, multi-cycle kinetics, 1:1 fit; 'No steady state.'
synthetic peptide S155 of the RAGE V-domain (amino acids 39-65) (human), sequence (peptide, as listed by the source): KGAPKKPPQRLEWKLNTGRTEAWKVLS

[2] = target: Human rRAGE, full-length RAGE recombinant protein from Merck (human) (UniProt Q15109); experiment: SPR (Biacore T200), antibody amine-coupled to a CM5 chip as ligand, RAGE recombinant protein (Merck) as analyte, multi-cycle kinetics, 1:1 fit
Human rRAGE, full-length RAGE recombinant protein from Merck (human), sequence (Q15109 23-404 limits assumed): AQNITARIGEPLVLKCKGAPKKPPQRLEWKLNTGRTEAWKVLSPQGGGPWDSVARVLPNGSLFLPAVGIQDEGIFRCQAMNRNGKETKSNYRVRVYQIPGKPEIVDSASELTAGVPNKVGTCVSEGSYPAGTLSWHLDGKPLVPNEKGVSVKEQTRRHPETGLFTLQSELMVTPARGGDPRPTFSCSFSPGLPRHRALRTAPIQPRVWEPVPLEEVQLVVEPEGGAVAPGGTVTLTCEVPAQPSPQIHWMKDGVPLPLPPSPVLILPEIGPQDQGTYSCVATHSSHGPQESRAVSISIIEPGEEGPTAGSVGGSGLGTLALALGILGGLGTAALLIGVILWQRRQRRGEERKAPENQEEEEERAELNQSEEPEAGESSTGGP

[3] = target: synthetic peptide S155 of the RAGE V-domain (amino acids 39-65) (human); experiment: ELISA, BSA-conjugated peptide S155 on the plate, two-fold dilutions of antibody, HRP anti-mouse, OD 450 nm
RAGE [4] = experiment: Western blot on protein extracts from ovarian cancer cell lines (OCCL); design: species or system human; details: whole-cell extracts of SKOV3, OVCAR3, A2780 and cisplatin-resistant lines; antibody 1 μg/mL
Description: Confluent cultures of cells were lysed in ice cold RIPA buffer (Sigma-Aldrich), whole-cell protein extracts were quantified with DC protein assay, 30 μg/lane were resolved by SDS-PAGE on TGX precast gels, transferred to mini PDVF membranes, blocked 1 h at RT in 5% Bovine Serum Albumin (BSA) in TBST (Tris Buffered Saline, 0.1% Tween-20) and incubated o/n at 4° C. in the same solution with 1 μg/mL of mA9 (sc-365154, Santa Cruz Biotechnology) antibody, mHA9 antibody or hHA9 antibody, or GAPDH (Santa Cruz Biotechnology) as loading control. Membranes were then washed with TBST and incubated 1 h at RT with 0.1 μg/mL of IgG horseradish peroxidase secondary antibody (GE Healthcare) or […] of Goat F(ab′) 2 Anti-Mouse IgG-F(ab′) 2 horseradish peroxidase secondary antibody (Abcam). Target proteins were visualised after incubation with Clarity Western ECL Substrate and imaged using a ChemiDoc System Bio-Rad Imager. Bands were quantified with ImageLab software. Unless stated all the materials specified above were obtained from Bio-Rad Laboratories.

[5] = target: T1, RAGE synthetic peptide (S155) (Homo sapiens, UniProt Q15109); experiment: ELISA screening of purified anti-RAGE antibody clones; type: binding; details: BSA-conjugated peptide S155; serial dilutions of antibody; 6 murine clones compared
T1 construct: purchased Biorad; host or cells: chemical synthesis
Description: A 96-well plate was coated with 5 μg/ml of RAGE synthetic peptides or RAGE recombinant protein diluted in phosphate-buffered saline (pH 7.4) overnight at 4° C. The solution was removed, washed with PBS-Tween (PBST) and the plate was blocked with ELISA ultrablock buffer (Biorad) for 1 h at room temperature. After blocking, the plate was washed with PBST and a range of concentrations of α-RAGE antibodies was applied to the plate for 2 h at room temperature. The plate was washed thoroughly with PBST and incubated with HRP-conjugated anti-mouse antibodies diluted 1:1000 in PBS-Tween. After washes with PBST, TMB Core+ substrate solution (Biorad) was added to each well and incubated at room temperature for 30 minutes. 0.2M H2SO4 was used as a stop solution. Absorbance at 450 nm was measured in a Biorad absorbance microplate reader.

RAGE [6] = target: RAGE (Homo sapiens, UniProt Q15109); experiment: Western blot on protein extracts from human healthy tissues; details: brain, breast, kidney, liver, lung, ovary, pancreas, spleen and uterus
RAGE (Homo sapiens, UniProt Q15109), sequence (Q15109 23-404): as the sequence (Q15109 23-404 limits assumed) above

[7] = target: T2, RAGE recombinant protein (Human rRAGE) (Homo sapiens, UniProt Q15109); experiment: Surface plasmon resonance binding kinetics (Biacore T200), recombinant protein analyte; details: analyte RAGE recombinant protein, or RAGE synthetic peptide, not separated
T2 construct: Human rRAGE=Full-length RAGE recombinant protein from Merck; purchased Merck
T2 sequence (Q15109 23-404): as the sequence (Q15109 23-404 limits assumed) above
Description: For on-rate and off-rate screening, Biacore™ T200 system (Cytiva, Uppsala, Sweden) was used to perform SPR analysis with 1×HBS-EP+ buffer (0.01M Hepes, 0.15M NaCl, 0.003M ethylenediaminetetraacetic acid, and 0.05% Surfactant P20, pH 7.4) (BR100669) used as sample and running buffer. The analysis temperature at the sensor chip surface and within the compartment was set to 25° C. Firstly, pH scouting with 10 mM sodium acetate buffer 4.0 (BR-1003-49), 10 mM sodium acetate buffer 4.5 (BR-1003-50), 10 mM sodium acetate buffer 5.0 (BR-1003-51) and 10 mM sodium acetate buffer 5.5 (BR-1003-52) was performed to identify the optimal pH required for ligand (α-RAGE antibodies) immobilization. This was followed by diluting the ligand with the appropriate Acetate buffer to at least 10 μg/mL. The ligand immobilization on the surface Series S Sensor Chip CM5 (29-1496-03, Cytiva) was performed using the Amine Coupling Kit (BR100050, Cytiva) containing 1-Etyhyl-3-(3-dimethylaminopropyl)-carbodiimide hydrochloride (EDC), N-Hydroxysuccinimide (NHS) and 1.0M ethanolamine-HcL PH 8.5 in accordance with the manufacturer's instructions. For each experimental run, the ligand was immobilized in flow cells 2 or 4 while flow cells 1 or 3 were left unmodified. Flow cells 2 and 4 were used as active flow cells while flow cells 1 and 3 were used as reference flow cells. Ligand immobilization levels were typically within the range 500-900 RU for the kinetic experiments and injected with a flow rate of 10 μL/min and contact time of 300 s. Analytes (RAGE recombinant protein and synthetic peptides) were injected for 120 s with a flow rate of 30 μL/min and dissociation time of 600 s run in order of increasing concentration over the reference and active flow cells using a multi-cycle kinetic approach with five-seven concentration range. Following each binding cycle, the surface was regenerated with a 30 s injection of 10 mM Glycine-HcL, pH 2.5 regeneration solution (BR-1003-56), removing the bound antibody with a contact time of 30 s, flow rate of 30 μL/min and a stabilization period of Os. […]

SKOV3 cells = experiment: Internalisation assay on SKOV3 cells; type: cell-based, human; details: 4 h or 24 h at 37° C., compared with other clones and AB11451
Description: To screen internalization capacity and traffic to lysosomes of α-RAGE antibodies, all the primary antibodies used in the screening were conjugated to pHAb Amine Reactive Dye following manufacturer's instructions (Promega, UK, Cat. No. G983). This type of dye emits fluorescence when traffics to acidic environments (late endosome and lysosome). For this purpose, 1.5×10^4 SKOV3 cells/well were seeded in 8-well chamber slides (Ibidi) in 300 μl of stripped medium and cultured for 24 h in a humidified, 5% CO2 in air atmosphere incubator at 37° C. After culture, cells were washed in pre-warmed (37° C.) Dulbecco's phosphate buffered saline (DPBS) and slides placed on ice. Cells were treated with control medium or medium containing one of the α-RAGE antibodies conjugated to pH-dye at 10 μg/ml, and the 8-well chamber slides were incubated on ice for 30 minutes. Slides were then transferred to the incubator at 37° C. for 4 h or 24 h. After internalization time, cells were washed in DPBS, fixed in 4% paraformaldehyde for 20 min and permeabilized with 0.1% Triton X-100 (Sigma) for 10 minutes at 4° C. Cells were washed with PBS extensively between all steps, counterstained before imaging with Hoechst (Life Technologies™) and imaged using a LSM710 confocal fluorescence microscopy system (Zeiss, UK). Unconjugated α-RAGE antibodies were also used in the internalisation assay. In this case were visualized using Alexa-fluorophore secondary antibodies as described in the immunofluorescence method.

Molecule | Kd [1] | koff [1] | kon [1] | Kd [2] | koff [2] | kon [2] | EC50 (read off the curve) [3] | RAGE isoform detected by western blot (RAGE [4]) | binding to immobilised RAGE synthetic peptide [5] | RAGE expression detected in human healthy tissues (RAGE [6]) | affinity interaction by SPR (summary statement) [7] | uptake (internalisation), secondary antibody detection (SKOV3 cells)
B1 | 0.2 µM | 0.00515 s⁻¹ | 25000 M⁻¹ s⁻¹ | 6.94 µM | 0.00561 s⁻¹ | 808 M⁻¹ s⁻¹ | 1 µg/mL |  |  |  |  | 
B2 |  |  |  |  |  |  |  | able to detect expression levels of full-length transmembrane RAGE | highest affinity for the peptide sequence antigen | absent or very low expression | weak affinity interaction | 
B3 |  |  |  |  |  |  |  |  | best binding response to the antigen |  |  | highest uptake levels

From US20250163149A1, “ANTI-RAGE ANTIBODY” (Swansea University, priority 2022, published 2025)
